# Reference: patent US20200087405A1 (UNIVERSITY OF SASKATCHEWAN, published 2020)
# T1: Fc-tagged ECD of ErbB4 (ErbB family member, R&D 1131-ER) (human, UniProt Q15303 26-651)
# T1 construct: extracellular domain; not shown: Fc tag of the bought protein
# T1 sequence (looked up): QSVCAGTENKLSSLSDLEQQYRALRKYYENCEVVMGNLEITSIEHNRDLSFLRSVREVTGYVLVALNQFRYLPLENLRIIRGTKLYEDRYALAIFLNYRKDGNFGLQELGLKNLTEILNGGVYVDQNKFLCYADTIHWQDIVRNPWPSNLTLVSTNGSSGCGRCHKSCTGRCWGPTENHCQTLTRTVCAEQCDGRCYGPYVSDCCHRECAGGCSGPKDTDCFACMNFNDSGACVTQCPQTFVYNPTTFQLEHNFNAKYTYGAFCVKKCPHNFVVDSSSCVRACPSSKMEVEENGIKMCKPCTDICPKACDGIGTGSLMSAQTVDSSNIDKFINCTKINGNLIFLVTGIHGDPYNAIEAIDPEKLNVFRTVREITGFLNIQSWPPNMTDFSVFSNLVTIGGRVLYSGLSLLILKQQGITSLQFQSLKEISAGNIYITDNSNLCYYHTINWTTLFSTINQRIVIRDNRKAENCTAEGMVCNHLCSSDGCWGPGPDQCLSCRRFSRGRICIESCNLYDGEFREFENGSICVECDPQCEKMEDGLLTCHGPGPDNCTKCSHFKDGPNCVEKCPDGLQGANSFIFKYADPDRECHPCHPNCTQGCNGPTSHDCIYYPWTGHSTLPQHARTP
# B1: Fab DL06 (Fab)
# heavy: EVQLVESGGGLVQPGGSLRLSCAASGFNISSSSIHWVRQAPGKGLEWVAYISSYYSSTYYADSVKGRFTISADTSKNTAYLQMNSLRAEDTAVYYCARTYCPPLMLYNPTTYQMDVNPEGKYSFGATCGWAMDYWGQGTLVTVSSASTKGPSVFPLAPSSKSTSGGTAALGCLVKDYFPEPVTVSWNSGALTSGVHTFPAVLQSSGLYSLSSVVTVPSSSLGTQTYICNVNHKPSNTKVDKKVEPKSCDKTHT
# light: DIQMTQSPSSLSASVGDRVTITCRASQSVSSAVAWYQQKPGKAPKLLIYSASSLYSGVPSRFSGSRSGTDFTLTISSLQPEDFATYYCQQWSYYPITFGQGTKVEIKRTVAAPSVFIFPPSDSQLKSGTASVVCLLNNFYPREAKVQWKVDNALQSGNSQESVTEQDSKDSTYSLSSTLTLSKADYEKHKVYACEVTHQGLSSPVTKSFNRGECGGSDYKDDDDK
# notes: Fab with the EGFR dimerization loop grafted in CDR-H3; the light chain entry ends in a FLAG tag; also called DL06 Fab; parent clone DL06
# Assays:
# [1] = molecular target: T2, Fc-tagged extracellular domain (ECD) of the recombinant human EGFR (rhEGFR) (human, UniProt P00533 25-645); test: apparent affinity by multi-point competitive ELISA using purified EGFR, Fab-phage; Fab-phage, first account of the DL06 selection
# T2 construct: extracellular domain; also called rhEGFR-ECD; rhEGFR-ECD-Fc; not shown: Fc tag of the bought protein (R&D 344-ER)
# [2] = molecular target: T1, Fc-tagged ECD of ErbB4 (ErbB family …); test: single point Fab-phage ELISA on immobilized protein
# [3] = molecular target: T3, Fc-tagged ECD of ErbB2 (ErbB family member, R&D 1129-ER) (human, UniProt P04626 23-652); test: as above
# T3 construct: extracellular domain; not shown: Fc tag of the bought protein
# [4] = molecular target: T4, Fc-tagged ECD of ErbB3 (R&D 348-RB) (human, UniProt P21860 20-643); test: as above
# T4 construct: extracellular domain; also called ErbB family member; not shown: Fc tag of the bought protein
# [5] = molecular target: T5, cell-surface EGFR (endogenous on A431, MDA-MB-231 and other cancer cell lines); pBABE-EGFR transfected 293T … (UniProt P00533 25-1210, limits assumed); test: flow cytometry on A431 cells, 800CW-labelled fragment
# T5 construct: whole, on cells; Untagged EGFR on cells; also called endogenous cell-surface EGFR; EGFR1
binder,measurement,setting,value
B1,Kd,[1],> 100 nM
same,binding result,[2],no binding
same,binding result,[3],no binding
same,binding result,[4],binds
same,Kd,[5],> 1000 nM
